Measured values as given in patent publication US8461322B2, “Plant 1-deoxy-D-xylulose 5-phosphate reductoisomerase” (E I du Pont de Nemours and Company, priority 1998, dated 2013).

Assay: Recombinant DXR activity, non-radioactive kinetic assay (oxidation of NADPH monitored at 340 nm)
Type: biochemical
Conditions: Ni-Agarose purified His-tagged protein expressed in E. coli, 100 mM Hepes pH 7.5, 1 mM MnCl2, NADPH, 0.3 mM DXP, room temperature
Protocol: Recombinant His-tagged DXR proteins were purified from E. coli using Ni-Agarose. Recombinant DXR activity was measured using a non-radioactive kinetic assay (Kuzuyama et al. (1998) Tetrahedron Lett 39:7913-7916). The assay mixture contained the following: 100 mM Hepes (pH 7.5); 1 mM MnCl2; […] NADPH, DXR, and 0.3 mM 1-deoxy-D-xylulose […] (DXP). The final volume of the reaction mixture was 200 μl and the assay was initiated by adding the substrate. The assay was run at room temperature on a plate reader. The oxidation of NADPH was monitored at 340 nm. The DXR activity was determined from the slope of the kinetic curve.

Molecule | DXR activity (oxidation of NADPH)
E. coli His-DXR: His-tagged E. coli 1-deoxy-D-xylulose 5-phosphate reductoisomerase (protein, His tag; His-tagged E. coli 1-deoxy-D-xylulose 5-phosphate reductoisomerase) MGSSHHHHHHSSGLVPRGSHMKQLTILGSTGSIGCSTLDVVRHNPEHFRVVALVAGKNVTRMVEQCLEFSPRYAVMDDEASAKLLKTMLQQQGSRTEVLSGQQAACDMAALEDVDQVMAAIVGAAGLLPTLAAIRAGKTILLANKESLVTCGRLFMDAVKQSKAQLLPVDSEHNAIFQSLPQPIQHNLGYADLEQNGVVSILLTGSGGPFRETPLRDLATMTPDQACRHPNWSMGRKISVDSATMMNKGLEYIEARWLFNASASQMEVLIHPQSVIHSMVRYQDGSVLAQLGEPDMRTPIAHTMAWPNRVNSGVKPLDFCKLSALTFAAPDYDRYPCLKLAMEAFEQGQAATTALNAANEITVAAFLAQQIRFTDIAALNLSVLEKMDMREPQCVDDVLSVDASAREVARKEVMRLAS | DXR activity was detected
second truncated rice His-DXR (SEQ ID NO:31): rice DXR protein in which the first seventy-six amino acids have been removed and replaced with a twenty-one amino acid His-tag (protein, His-tag; His-tagged truncated rice 1-deoxy-D-xylulose 5-phosphate reductoisomerase) MGSSHHHHHHSSGLVPRGSHMKPISIVGSTGSIGTQTLDIVAENPDKFRVVALAAGSNVTLLADQVKTFKPKLVAVRNESLVDELKEALADCDWKPEIIPGEQGVIEVARHPDAVTVVTGIVGCAGLKPTVAAIEAGKDIALANKETLIAGGPFVLPLAQKHKVKILPADSEHSAIFQCIQGLPEGALRRIILTASGGAFRDWPVDKLKEVKVADALKHPNWNMGKKITVDSATLFNKGLEVIEAHYLFGAEYDDIEIVIHPQSIIHSMIETQDSSVLAQLGWPDMRIPTLYTMSWPDRIYCSEVTWPRLDLCKLGSLTFKAPDNVKYPSMDLAYAAGRAGGTMTGVLSAANEKAVELFIDEKIGYLDIFKVVELTCDAHRNELVTRPSLEEIIHYDLWAREYAASLQPSTGLSPVPV | no oxidation of NADPH was detected
truncated rice His-DXR (SEQ ID NO:30): rice DXR protein in which the first fifty-one amino acids have been removed and replaced with a twenty amino acid His-tag (protein, His-tag; His-tagged truncated rice 1-deoxy-D-xylulose 5-phosphate reductoisomerase) MGSSHHHHHHSSGLVPRGSHMQQAPPPAWPGRAVVEPGRRSWDGPKPISIVGSTGSIGTQTLDIVAENPDKFRVVALAAGSNVTLLADQVKTFKPKLVAVRNESLVDELKEALADCDWKPEIIPGEQGVIEVARHPDAVTVVTGIVGCAGLKPTVAAIEAGKDIALANKETLIAGGPFVLPLAQKHKVKILPADSEHSAIFQCIQGLPEGALRRIILTASGGAFRDWPVDKLKEVKVADALKHPNWNMGKKITVDSATLFNKGLEVIEAHYLFGAEYDDIEIVIHPQSIIHSMIETQDSSVLAQLGWPDMRIPTLYTMSWPDRIYCSEVTWPRLDLCKLGSLTFKAPDNVKYPSMDLAYAAGRAGGTMTGVLSAANEKAVELFIDEKIGYLDIFKVVELTCDAHRNELVTRPSLEEIIHYDLWAREYAASLQPSTGLSPVPV | no oxidation of NADPH was detected
Synechocystis His-DXR: His-tagged Synechocystis 1-deoxy-D-xylulose 5-phosphate reductoisomerase (protein, His-tag; His-tagged Synechocystis 1-deoxy-D-xylulose 5-phosphate reductoisomerase) MGSSHHHHHHSSGLVPRGSHMVKRISILGSTGSIGTQTLDIVTHHPDAFQVVGLAAGGNVALLAQQVAEFRPEIVAIRQAEKLEDLKAAVAELTDYQPMYVVGEEGVVEVARYGDAESVVTGIVGCAGLLPTMAAIAAGKDIALANKETLIAGAPVVLPLVEKMGVKLLPADSEHSAIFQCLQGVPEGGLRRIILTASGGAFRDLPVERLPFVTVQDALKHPNWSMGQKITIDSATLMNKGLEVIEAHYLFGLDYDHIDIVIHPQSIIHSLIEVQDTSVLAQLGWPDMRLPLLYALSWPERIYTDWEPLDLVKAGSLSFREPDHDKYPCMQLAYGAGRAGGAMPAVLNAANEQAVALFLQEKISFLDIPRLIEKTCDLYVGQNTASPDLETILAADQWARRTVLENSACVATRP | DXR activity was detected
